Columns and labels:
Assay in all cases: BiFC in tobacco leaf epidermal cells
[1] = molecular target: T1, BSL1 (BiFC construct tested with BSK1-cYFP) (Arabidopsis, UniProt Q8L7U5 1-881)
T1 sequence: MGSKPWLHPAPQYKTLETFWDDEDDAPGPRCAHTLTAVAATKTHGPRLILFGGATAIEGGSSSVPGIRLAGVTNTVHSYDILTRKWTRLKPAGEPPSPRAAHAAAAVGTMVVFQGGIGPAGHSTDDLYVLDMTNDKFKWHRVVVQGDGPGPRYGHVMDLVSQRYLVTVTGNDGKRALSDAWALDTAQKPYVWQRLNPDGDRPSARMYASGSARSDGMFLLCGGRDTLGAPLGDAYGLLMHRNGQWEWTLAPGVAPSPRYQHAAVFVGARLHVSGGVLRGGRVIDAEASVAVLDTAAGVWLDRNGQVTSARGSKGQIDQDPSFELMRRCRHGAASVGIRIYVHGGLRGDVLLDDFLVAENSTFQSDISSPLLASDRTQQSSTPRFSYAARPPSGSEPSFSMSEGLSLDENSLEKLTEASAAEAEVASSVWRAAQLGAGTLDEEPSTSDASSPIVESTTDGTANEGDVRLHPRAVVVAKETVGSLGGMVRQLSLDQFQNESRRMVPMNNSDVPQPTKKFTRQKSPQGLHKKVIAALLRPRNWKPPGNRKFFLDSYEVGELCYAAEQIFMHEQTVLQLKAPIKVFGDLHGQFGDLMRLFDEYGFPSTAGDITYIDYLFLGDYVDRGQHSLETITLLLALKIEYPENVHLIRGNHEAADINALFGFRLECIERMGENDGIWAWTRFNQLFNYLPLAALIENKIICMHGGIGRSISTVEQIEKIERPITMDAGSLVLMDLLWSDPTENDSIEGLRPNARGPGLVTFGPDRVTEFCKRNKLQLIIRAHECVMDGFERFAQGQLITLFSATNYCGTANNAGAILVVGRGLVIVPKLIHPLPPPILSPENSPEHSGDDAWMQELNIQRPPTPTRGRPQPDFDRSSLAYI
From the text: (§1) The blot was probed sequentially with MBP-BSU1 and anti-MBP antibody (upper) and then stained with Ponceau S (lower). […] Tobacco leaf epidermal cells were transformed with indicated constructs. At5g49760 is a receptor kinase unrelated to BR signaling used here as a negative control. Bright spots in nYFP+BSK 1-cYFP and At5g49760-nYFP+BSK1-cYFP are chloroplast auto-fluorescence. […] Total protein extracts obtained from Arabidopsis plants (F1) expressing BSU1 -YFP or co-expressing BSU1-YFP and BSK1-myc were immunoprecipitated with anti-myc, and the immunoblot was probed with anti-GFP and anti-myc antibody. […] GST-BSK1 or GST-BSK1 S230A was incubated with GST-BRI1-K or GST for 2 hrs. […] In the presence of BR (+BR), BR binding to the extracellular domain of BRI1 induces dissociation of BKI1 and association and inter-activation between BRI1 and BAKI. Activated BRI1 then phosphorylates BSK1, which in turn dissociates from the receptor complex and interacts with and presumably activate BSU1. BSU1 inactivates BIN2 by dephosphorylating its pTyr200, allowing accumulation of unphosphorylated BZR1/2, likely with help of a phosphatase that is yet to be identified. Unphosphorylated BZR1/2 accumulate in the nucleus and alter the expression of BR-target genes, leading to cellular and developmental responses. While individual representative protein is shown for each function, in Arabidopsis most of these components have about 2 to 5 homologous proteins (paralogs) that can contribute to the same or similar signaling function.
(§2) Transformation by Agrobacterium infiltration, observations of subcellular localization and BiFC signal in tobacco or Arabidopsis were performed as described previously 5.

At5g49760-nYFP = molecular target: T2, At5g49760-nYFP (UniProt Q8GZ99 24-953)
T2 construct: BiFC negative control; not shown: N-terminal half of YFP (nYFP)
T2 sequence (looked up): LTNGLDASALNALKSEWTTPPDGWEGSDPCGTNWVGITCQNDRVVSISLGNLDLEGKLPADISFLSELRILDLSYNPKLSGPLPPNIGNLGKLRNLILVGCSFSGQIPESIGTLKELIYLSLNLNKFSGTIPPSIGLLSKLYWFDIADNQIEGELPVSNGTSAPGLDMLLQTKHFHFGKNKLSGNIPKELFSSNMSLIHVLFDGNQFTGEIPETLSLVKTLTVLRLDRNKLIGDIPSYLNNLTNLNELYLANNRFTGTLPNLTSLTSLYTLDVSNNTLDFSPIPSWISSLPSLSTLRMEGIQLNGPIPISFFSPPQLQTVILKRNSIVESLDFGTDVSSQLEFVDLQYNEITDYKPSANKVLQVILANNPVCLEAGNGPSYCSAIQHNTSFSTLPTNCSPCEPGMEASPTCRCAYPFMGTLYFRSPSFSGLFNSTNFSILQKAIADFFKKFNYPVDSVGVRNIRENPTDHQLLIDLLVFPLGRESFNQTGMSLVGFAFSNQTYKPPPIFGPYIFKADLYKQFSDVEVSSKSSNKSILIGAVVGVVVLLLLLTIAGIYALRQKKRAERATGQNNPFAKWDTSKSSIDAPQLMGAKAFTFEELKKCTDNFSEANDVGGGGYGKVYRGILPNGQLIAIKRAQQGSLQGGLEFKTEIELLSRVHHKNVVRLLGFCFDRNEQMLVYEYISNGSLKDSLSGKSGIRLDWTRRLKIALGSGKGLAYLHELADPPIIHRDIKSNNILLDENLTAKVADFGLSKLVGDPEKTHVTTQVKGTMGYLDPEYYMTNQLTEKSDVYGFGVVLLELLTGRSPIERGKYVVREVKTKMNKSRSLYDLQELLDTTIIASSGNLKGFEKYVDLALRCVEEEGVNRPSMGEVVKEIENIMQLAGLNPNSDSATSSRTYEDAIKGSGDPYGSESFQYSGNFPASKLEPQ
From the text: as §1, §2

[2] = molecular target: BSU1 (BiFC construct tested with BSK1-cYFP) (Arabidopsis, UniProt Q9LR78 1-793)
From the text: as §1, §2

Sequence of BSU1 (BiFC construct tested with BSK1-cYFP) (Q9LR78 whole entry): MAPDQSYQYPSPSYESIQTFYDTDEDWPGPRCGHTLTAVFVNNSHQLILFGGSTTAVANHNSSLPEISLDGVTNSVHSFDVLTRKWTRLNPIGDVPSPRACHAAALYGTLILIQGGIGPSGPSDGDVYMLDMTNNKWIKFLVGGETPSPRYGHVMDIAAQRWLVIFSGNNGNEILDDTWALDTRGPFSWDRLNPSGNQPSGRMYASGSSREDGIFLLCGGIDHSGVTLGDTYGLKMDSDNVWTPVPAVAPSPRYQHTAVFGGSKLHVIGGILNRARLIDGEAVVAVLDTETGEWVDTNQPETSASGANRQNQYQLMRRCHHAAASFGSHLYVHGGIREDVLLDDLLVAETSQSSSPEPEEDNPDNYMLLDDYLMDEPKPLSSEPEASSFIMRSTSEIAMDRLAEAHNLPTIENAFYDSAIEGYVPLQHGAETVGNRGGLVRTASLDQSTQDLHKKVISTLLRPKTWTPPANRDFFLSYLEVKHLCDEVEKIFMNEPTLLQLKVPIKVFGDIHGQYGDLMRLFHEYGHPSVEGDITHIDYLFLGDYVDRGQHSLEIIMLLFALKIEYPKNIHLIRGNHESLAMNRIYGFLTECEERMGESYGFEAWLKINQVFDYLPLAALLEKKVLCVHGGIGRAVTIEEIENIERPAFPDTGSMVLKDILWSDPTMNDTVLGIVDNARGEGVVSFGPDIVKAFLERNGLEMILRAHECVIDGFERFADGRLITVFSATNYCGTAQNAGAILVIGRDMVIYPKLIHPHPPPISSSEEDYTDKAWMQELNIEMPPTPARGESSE

- binding result [1]: binds
- binding result (At5g49760-nYFP): no binding
- binding result [2]: binds
B1: BSK1-cYFP (enzyme, Arabidopsis, UniProt Q944A7 2-512, looked up)
chain: GCCQSLFSGDNPLGKDGVQPQPLSQNNHGGATTADNGGSGGASGVGGGGGGGGIPSFSEFSFADLKAATNNFSSDNIVSESGEKAPNLVYKGRLQNRRWIAVKKFTKMAWPEPKQFAEEAWGVGKLRHNRLANLIGYCCDGDERLLVAEFMPNDTLAKHLFHWENQTIEWAMRLRVGYYIAEALDYCSTEGRPLYHDLNAYRVLFDEDGDPRLSCFGLMKNSRDGKSYSTNLAYTPPEYLRNGRVTPESVTYSFGTVLLDLLSGKHIPPSHALDMIRGKNIILLMDSHLEGKFSTEEATVVVELASQCLQYEPRERPNTKDLVATLAPLQTKSDVPSYVMLGIKKQEEAPSTPQRPLSPLGEACSRMDLTAIHQILVMTHYRDDEGTNELSFQEWTQQMKDMLDARKRGDQSFREKDFKTAIDCYSQFIDVGTMVSPTVFGRRSLCYLLCDQPDAALRDAMQAQCVYPDWPTAFYMQSVALAKLNMNTDAADMLNEAAQLEEKRQRGGRGS
notes: BiFC construct in tobacco leaf epidermal cells; not shown: C-terminal half of YFP (cYFP)
